Measured values reported in publication PMC6555819, “Comprehensive study of nuclear receptor DNA binding provides a revised framework for understanding receptor specificity”.

Biological target: PPARg:RXRa (Homo sapiens, UniProt P37231;P19793 full;full)
Assay: no ligand; PBM; 180 nM : 90 nM RXRa; PBS pH 7.4, 2% milk, 0.02% Triton X-100, 1 mM DTT, BSA, 0.4 mg/ml salmon testes DNA
Conditions: tags: His kept;His cleaved; copies: 1;1; label: surface-attached array probe

Sequence of PPARg:RXRa (P37231 29-505, chain 1 of 2): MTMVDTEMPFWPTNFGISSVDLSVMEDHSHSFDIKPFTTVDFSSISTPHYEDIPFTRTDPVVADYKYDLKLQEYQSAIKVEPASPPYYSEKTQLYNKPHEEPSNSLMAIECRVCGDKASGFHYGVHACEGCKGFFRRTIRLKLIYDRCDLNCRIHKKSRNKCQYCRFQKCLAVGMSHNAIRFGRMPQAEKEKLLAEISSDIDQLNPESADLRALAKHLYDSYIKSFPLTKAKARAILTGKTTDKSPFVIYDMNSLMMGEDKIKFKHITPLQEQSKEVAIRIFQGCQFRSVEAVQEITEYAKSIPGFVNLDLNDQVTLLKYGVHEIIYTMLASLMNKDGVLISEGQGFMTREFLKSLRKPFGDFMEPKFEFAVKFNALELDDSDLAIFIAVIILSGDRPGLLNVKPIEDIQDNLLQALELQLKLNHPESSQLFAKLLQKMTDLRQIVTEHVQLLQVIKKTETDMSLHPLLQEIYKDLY
Sequence of PPARg:RXRa (P19793 whole entry, chain 2 of 2): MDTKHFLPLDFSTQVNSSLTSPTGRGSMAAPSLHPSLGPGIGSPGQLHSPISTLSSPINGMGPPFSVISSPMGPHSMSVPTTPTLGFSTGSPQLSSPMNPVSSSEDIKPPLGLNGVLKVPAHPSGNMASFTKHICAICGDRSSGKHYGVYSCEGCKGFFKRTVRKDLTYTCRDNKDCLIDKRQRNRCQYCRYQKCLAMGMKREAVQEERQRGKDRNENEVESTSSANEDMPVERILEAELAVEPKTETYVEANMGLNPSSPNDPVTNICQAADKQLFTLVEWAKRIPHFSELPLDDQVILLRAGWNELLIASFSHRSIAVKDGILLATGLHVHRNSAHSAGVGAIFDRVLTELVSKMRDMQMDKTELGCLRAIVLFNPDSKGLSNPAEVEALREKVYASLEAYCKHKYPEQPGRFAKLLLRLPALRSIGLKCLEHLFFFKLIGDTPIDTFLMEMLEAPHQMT

Binder	binding signal
NRC3_wobSeed73_DR3_A4T_o1 (dsDNA) DNA 1: GCCTAACTAGGTCACAGAGGTCAAAGTCCGTGCGTAGCGATTGACAGCGTAGAATGAAGG DNA 2: CCTTCATTCTACGCTGTCAATCGCTACGCACGGACTTTGACCTCTGTGACCTAGTTAGGC	10.9 PBM z-score against 500 random probes
NRC3_wobSeed25_DR1_A23G_o1 (dsDNA) DNA 1: GCCAAACTAGGTCAAAGGTCAAGGTCGAGCCAACCAGCGATTGACAGCGTAGAATGAAGG DNA 2: CCTTCATTCTACGCTGTCAATCGCTGGTTGGCTCGACCTTGACCTTTGACCTAGTTTGGC	14.4 PBM z-score against 500 random probes
NRC3_wobSeed25_DR1_A23C_o1 (dsDNA) DNA 1: GCCAAACTAGGTCAAAGGTCAACGTCGAGCCAACCAGCGATTGACAGCGTAGAATGAAGG DNA 2: CCTTCATTCTACGCTGTCAATCGCTGGTTGGCTCGACGTTGACCTTTGACCTAGTTTGGC	14.2 PBM z-score against 500 random probes
NRC3_wobSeed25_DR1_A22G_o1 (dsDNA) DNA 1: GCCAAACTAGGTCAAAGGTCAGAGTCGAGCCAACCAGCGATTGACAGCGTAGAATGAAGG DNA 2: CCTTCATTCTACGCTGTCAATCGCTGGTTGGCTCGACTCTGACCTTTGACCTAGTTTGGC	14.2 PBM z-score against 500 random probes
NRC3_random_hg19_131_o1 (dsDNA) DNA 1: GCTCCCTCAAGCTCTCTGAATCTCAGAGTCAGCATCGCGATTGACAGCGTAGAATGAAGG DNA 2: CCTTCATTCTACGCTGTCAATCGCGATGCTGACTCTGAGATTCAGAGAGCTTGAGGGAGC	-0.66 PBM z-score against 500 random probes
NRC3_wobSeed33_DR1_A13C_o1 (dsDNA) DNA 1: GCATCTCTAGGTCAAAGTTCAGTGAATCCCGAGGATGCGATTGACAGCGTAGAATGAAGG DNA 2: CCTTCATTCTACGCTGTCAATCGCATCCTCGGGATTCACTGAACTTTGACCTAGAGATGC	11.7 PBM z-score against 500 random probes
NRC3_wobSeed33_DR1_A13G_o1 (dsDNA) DNA 1: GCATCTCTAGGTGAAAGTTCAGTGAATCCCGAGGATGCGATTGACAGCGTAGAATGAAGG DNA 2: CCTTCATTCTACGCTGTCAATCGCATCCTCGGGATTCACTGAACTTTCACCTAGAGATGC	10.7 PBM z-score against 500 random probes
NRC3_wobSeed97_DR4_G27A_o1 (dsDNA) DNA 1: GCCAAACTAGGTCACGAAAGGTCAAAATCGAATGACGCGATTGACAGCGTAGAATGAAGG DNA 2: CCTTCATTCTACGCTGTCAATCGCGTCATTCGATTTTGACCTTTCGTGACCTAGTTTGGC	10.9 PBM z-score against 500 random probes
NRC3_wobSeed97_DR4_C7G_o1 (dsDNA) DNA 1: GCCAAAGTAGGTCACGAAAGGTCAAAGTCGAATGACGCGATTGACAGCGTAGAATGAAGG DNA 2: CCTTCATTCTACGCTGTCAATCGCGTCATTCGACTTTGACCTTTCGTGACCTACTTTGGC	10.8 PBM z-score against 500 random probes
NRC3_wobSeed97_DR4_A4T_o1 (dsDNA) DNA 1: GCCTAACTAGGTCACGAAAGGTCAAAGTCGAATGACGCGATTGACAGCGTAGAATGAAGG DNA 2: CCTTCATTCTACGCTGTCAATCGCGTCATTCGACTTTGACCTTTCGTGACCTAGTTAGGC	10.8 PBM z-score against 500 random probes
NRC3_wobSeed97_DR4_C29T_o1 (dsDNA) DNA 1: GCCAAACTAGGTCACGAAAGGTCAAAGTTGAATGACGCGATTGACAGCGTAGAATGAAGG DNA 2: CCTTCATTCTACGCTGTCAATCGCGTCATTCAACTTTGACCTTTCGTGACCTAGTTTGGC	10.9 PBM z-score against 500 random probes
NRC3_wobSeed39_DR1_A19C_o1 (dsDNA) DNA 1: GCCGAACTAGGTCAAAGGCCAGTGAAAGGCGACGTAGCGATTGACAGCGTAGAATGAAGG DNA 2: CCTTCATTCTACGCTGTCAATCGCTACGTCGCCTTTCACTGGCCTTTGACCTAGTTCGGC	11.3 PBM z-score against 500 random probes
NRC3_wobSeed39_DR1_G22C_o1 (dsDNA) DNA 1: GCCGAACTAGGTCAAAGGACACTGAAAGGCGACGTAGCGATTGACAGCGTAGAATGAAGG DNA 2: CCTTCATTCTACGCTGTCAATCGCTACGTCGCCTTTCAGTGTCCTTTGACCTAGTTCGGC	11.2 PBM z-score against 500 random probes
NRC3_wobSeed36_DR1_G5C_o1 (dsDNA) DNA 1: GCCCCACTGGGGCAAAGGTTACCATACTCAGTACGAGCGATTGACAGCGTAGAATGAAGG DNA 2: CCTTCATTCTACGCTGTCAATCGCTCGTACTGAGTATGGTAACCTTTGCCCCAGTGGGGC	12.2 PBM z-score against 500 random probes
NRC3_random_hg19_235_o1 (dsDNA) DNA 1: GCGCTGGGAGGCAACTGCCATTGGCATGCCATGCCAGCGATTGACAGCGTAGAATGAAGG DNA 2: CCTTCATTCTACGCTGTCAATCGCTGGCATGGCATGCCAATGGCAGTTGCCTCCCAGCGC	-0.53 PBM z-score against 500 random probes
NRC3_wobSeed30_DR1_C8T_o1 (dsDNA) DNA 1: GCACTAGTAGGCCAAGGGTCACTCAAGATTAGTCCGGCGATTGACAGCGTAGAATGAAGG DNA 2: CCTTCATTCTACGCTGTCAATCGCCGGACTAATCTTGAGTGACCCTTGGCCTACTAGTGC	10.9 PBM z-score against 500 random probes
NRC3_wobSeed31_DR1_A13G_o1 (dsDNA) DNA 1: GCTCATATAGGTGAAAGGTGAAAGTCGGTGTGGTAAGCGATTGACAGCGTAGAATGAAGG DNA 2: CCTTCATTCTACGCTGTCAATCGCTTACCACACCGACTTTCACCTTTCACCTATATGAGC	11.6 PBM z-score against 500 random probes
NRC3_wobSeed31_DR1_A13T_o1 (dsDNA) DNA 1: GCTCATATAGGTTAAAGGTGAAAGTCGGTGTGGTAAGCGATTGACAGCGTAGAATGAAGG DNA 2: CCTTCATTCTACGCTGTCAATCGCTTACCACACCGACTTTCACCTTTAACCTATATGAGC	10.8 PBM z-score against 500 random probes
NRC3_wobSeed29_DR1_T5A_o1 (dsDNA) DNA 1: GCGCATACGGGTCAAAGGTTATAGCATGAATAGAATGCGATTGACAGCGTAGAATGAAGG DNA 2: CCTTCATTCTACGCTGTCAATCGCATTCTATTCATGCTATAACCTTTGACCCGTATGCGC	12.2 PBM z-score against 500 random probes
NRC3_wobSeed29_DR1_A23G_o1 (dsDNA) DNA 1: GCGCTTACGGGTCAAAGGTTATGGCATGAATAGAATGCGATTGACAGCGTAGAATGAAGG DNA 2: CCTTCATTCTACGCTGTCAATCGCATTCTATTCATGCCATAACCTTTGACCCGTAAGCGC	12 PBM z-score against 500 random probes
NRC3_wobSeed42_DR1_A8T_o1 (dsDNA) DNA 1: GCTATACTGGGTCAAAGGCCAGAGTACGAATGTCGAGCGATTGACAGCGTAGAATGAAGG DNA 2: CCTTCATTCTACGCTGTCAATCGCTCGACATTCGTACTCTGGCCTTTGACCCAGTATAGC	10.8 PBM z-score against 500 random probes
NRC3_random_hg19_118_o1 (dsDNA) DNA 1: GCTTGTCACTTGTCATTCCTGCCAAGAGAGCTCTATGCGATTGACAGCGTAGAATGAAGG DNA 2: CCTTCATTCTACGCTGTCAATCGCATAGAGCTCTCTTGGCAGGAATGACAAGTGACAAGC	-0.38 PBM z-score against 500 random probes
NRC3_wobSeed49_DR2_T26G_o1 (dsDNA) DNA 1: GCCAAACTAGGTCAAGAGGTCAAAGGCCGCTTCCCGGCGATTGACAGCGTAGAATGAAGG DNA 2: CCTTCATTCTACGCTGTCAATCGCCGGGAAGCGGCCTTTGACCTCTTGACCTAGTTTGGC	10.9 PBM z-score against 500 random probes
NRC3_wobSeed49_DR2_A15C_o1 (dsDNA) DNA 1: GCCAAACTAGGTCACGAGGTCAAAGTCCGCTTCCCGGCGATTGACAGCGTAGAATGAAGG DNA 2: CCTTCATTCTACGCTGTCAATCGCCGGGAAGCGGACTTTGACCTCGTGACCTAGTTTGGC	10.5 PBM z-score against 500 random probes
